Data: US20230159655A1

Experiments:
[1] = target: CD73 endogenously expressed on the cell surface (MDA-MB-231 cells; U87-MG cells) (UniProt P21589); assay: flow cytometry on MDA-MB-231 cells; antibody 33.33 nM
[2] = target: CD73 endogenously expressed on the cell surface (MDA-MB-231 cells; U87-MG cells) (UniProt P21589); assay: flow cytometry on MDA-MB-231 cells; antibody 0.41 nM
[3] = target: human NT5E-Biotin (NT5E, GenbankID: NP_002517.1, position: 1-552) (human) (UniProt P21589); assay: ELISA on SA-captured NT5E-Biotin; antibody 0.333 ug/mL diluted 1:81; replicate 1
[4] = target: human NT5E-Biotin (NT5E, GenbankID: NP_002517.1, position: 1-552) (human) (UniProt P21589); assay: ELISA on SA-captured NT5E-Biotin; antibody 0.333 ug/mL diluted 1:27; replicate 1
[5] = target: human NT5E-Biotin (NT5E, GenbankID: NP_002517.1, position: 1-552) (human) (UniProt P21589); assay: ELISA on SA-captured NT5E-Biotin; antibody 0.333 ug/mL diluted 1:243; replicate 1
[6] = target: human NT5E-Biotin (NT5E, GenbankID: NP_002517.1, position: 1-552) (human) (UniProt P21589); assay: ELISA on SA-captured NT5E-Biotin; antibody 0.333 ug/mL diluted 1:9; replicate 2
[7] = target: human NT5E(1-552)-his (human) (UniProt P21589); assay: Fortebio BLI, antibody on Protein A sensor, antigen 3.125-200 nM, 37 C, 1:1 fit
[8] = target: CD73 endogenously expressed on the cell surface (MDA-MB-231 cells; U87-MG cells) (UniProt P21589); assay: flow cytometry on MDA-MB-231 cells; antibody 0.14 nM
[9] = target: human NT5E-Biotin (NT5E, GenbankID: NP_002517.1, position: 1-552) (human) (UniProt P21589); assay: ELISA on SA-captured NT5E-Biotin; antibody 0.333 ug/mL diluted 1:81; replicate 2
[10] = target: human NT5E-Biotin (NT5E, GenbankID: NP_002517.1, position: 1-552) (human) (UniProt P21589); assay: ELISA on SA-captured NT5E-Biotin; antibody 0.333 ug/mL diluted 1:3; replicate 2
[11] = target: human NT5E-Biotin (NT5E, GenbankID: NP_002517.1, position: 1-552) (human) (UniProt P21589); assay: ELISA on SA-captured NT5E-Biotin; antibody 0.333 ug/mL diluted 1:243; replicate 2
[12] = target: human NT5E-Biotin (NT5E, GenbankID: NP_002517.1, position: 1-552) (human) (UniProt P21589); assay: ELISA on SA-captured NT5E-Biotin; antibody 0.333 ug/mL diluted 1:729; replicate 2
[13] = target: human NT5E-Biotin (NT5E, GenbankID: NP_002517.1, position: 1-552) (human) (UniProt P21589); assay: ELISA on SA-captured NT5E-Biotin; antibody 0.333 ug/mL; replicate 2
[14] = target: human NT5E-Biotin (NT5E, GenbankID: NP_002517.1, position: 1-552) (human) (UniProt P21589); assay: ELISA on SA-captured NT5E-Biotin; antibody 0 (blank); replicate 1
[15] = target: CD73 endogenously expressed on the cell surface (MDA-MB-231 cells; U87-MG cells) (UniProt P21589); assay: flow cytometry on MDA-MB-231 cells; antibody 3.70 nM
[16] = target: CD73 endogenously expressed on the cell surface (MDA-MB-231 cells; U87-MG cells) (UniProt P21589); assay: flow cytometry on MDA-MB-231 cells; antibody 100.00 nM
[17] = target: CD73 endogenously expressed on the cell surface (MDA-MB-231 cells; U87-MG cells) (UniProt P21589); assay: flow cytometry on MDA-MB-231 cells; antibody […]
[18] = target: CD73 endogenously expressed on the cell surface (MDA-MB-231 cells; U87-MG cells) (UniProt P21589); assay: flow cytometry on MDA-MB-231 cells; antibody 0.05 nM
[19] = target: CD73 endogenously expressed on the cell surface (MDA-MB-231 cells; U87-MG cells) (UniProt P21589); assay: flow cytometry on MDA-MB-231 cells; antibody 11.11 nM
[20] = target: human NT5E-Biotin (NT5E, GenbankID: NP_002517.1, position: 1-552) (human) (UniProt P21589); assay: ELISA on SA-captured NT5E-Biotin; antibody 0.333 ug/mL diluted 1:729; replicate 1
[21] = target: human NT5E-Biotin (NT5E, GenbankID: NP_002517.1, position: 1-552) (human) (UniProt P21589); assay: ELISA on SA-captured NT5E-Biotin; antibody 0.333 ug/mL diluted 1:27; replicate 2
[22] = target: human NT5E-Biotin (NT5E, GenbankID: NP_002517.1, position: 1-552) (human) (UniProt P21589); assay: ELISA on SA-captured NT5E-Biotin; antibody 0 (blank); replicate 2
[23] = target: human NT5E-Biotin (NT5E, GenbankID: NP_002517.1, position: 1-552) (human) (UniProt P21589); assay: ELISA on SA-captured NT5E-Biotin; antibody 0.333 ug/mL diluted 1:9; replicate 1
[24] = target: human NT5E-Biotin (NT5E, GenbankID: NP_002517.1, position: 1-552) (human) (UniProt P21589); assay: ELISA on SA-captured NT5E-Biotin; antibody 0.333 ug/mL diluted 1:3; replicate 1
[25] = target: human NT5E-Biotin (NT5E, GenbankID: NP_002517.1, position: 1-552) (human) (UniProt P21589); assay: ELISA on SA-captured NT5E-Biotin; antibody 0.333 ug/mL; replicate 1

human NT5E-Biotin (NT5E, GenbankID: NP_002517.1, position: 1-552) (human), sequence (P21589 27-552 limits assumed, form in doubt): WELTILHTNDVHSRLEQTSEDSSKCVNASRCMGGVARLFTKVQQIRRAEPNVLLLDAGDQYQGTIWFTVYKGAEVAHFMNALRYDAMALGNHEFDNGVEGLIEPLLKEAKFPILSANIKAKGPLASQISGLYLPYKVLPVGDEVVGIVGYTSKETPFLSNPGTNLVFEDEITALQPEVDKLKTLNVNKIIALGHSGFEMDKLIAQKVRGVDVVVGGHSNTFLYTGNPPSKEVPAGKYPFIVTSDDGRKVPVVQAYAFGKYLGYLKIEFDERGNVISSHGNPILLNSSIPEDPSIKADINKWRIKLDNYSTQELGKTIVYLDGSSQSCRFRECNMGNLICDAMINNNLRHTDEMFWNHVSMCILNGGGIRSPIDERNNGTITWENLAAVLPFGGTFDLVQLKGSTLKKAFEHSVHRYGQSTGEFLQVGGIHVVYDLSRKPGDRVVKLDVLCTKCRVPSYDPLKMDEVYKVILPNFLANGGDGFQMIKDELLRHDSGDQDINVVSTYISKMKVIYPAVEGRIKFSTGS
CD73 endogenously expressed on the cell surface (MDA-MB-231 cells; U87-MG cells), sequence (P21589 27-549 limits assumed): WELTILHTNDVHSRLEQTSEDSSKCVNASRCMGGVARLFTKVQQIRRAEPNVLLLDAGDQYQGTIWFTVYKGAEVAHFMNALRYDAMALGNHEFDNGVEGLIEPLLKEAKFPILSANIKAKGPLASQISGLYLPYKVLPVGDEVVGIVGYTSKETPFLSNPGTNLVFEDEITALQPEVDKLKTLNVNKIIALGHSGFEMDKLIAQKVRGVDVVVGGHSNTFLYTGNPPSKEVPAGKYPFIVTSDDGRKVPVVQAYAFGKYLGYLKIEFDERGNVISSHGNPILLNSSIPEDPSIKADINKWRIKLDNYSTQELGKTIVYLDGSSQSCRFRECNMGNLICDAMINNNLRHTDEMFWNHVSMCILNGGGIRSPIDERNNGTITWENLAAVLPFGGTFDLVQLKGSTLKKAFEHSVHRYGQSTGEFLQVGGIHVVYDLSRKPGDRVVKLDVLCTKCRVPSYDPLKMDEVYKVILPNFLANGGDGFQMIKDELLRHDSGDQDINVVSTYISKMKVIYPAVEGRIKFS
human NT5E(1-552)-his (human), sequence (P21589 27-552 limits assumed, form in doubt): as the sequence (P21589 27-552 limits assumed, form in doubt) above

## positive control antibody MEDI9447 (oleclumab)
[1]
  fluorescence intensity (FACS): 546
[2]
  fluorescence intensity (FACS): 91
[3]
  OD 450 nm: 1.06 OD450
[4]
  OD 450 nm: 1.77 OD450
[5]
  OD 450 nm: 0.536 OD450
[6]
  OD 450 nm: 2.28 OD450
[7]
  S E (kdis): 5.02e-06 s⁻¹
[8]
  fluorescence intensity (FACS): 43.2
[9]
  OD 450 nm: 1.03 OD450
[10]
  OD 450 nm: 2.6 OD450
[11]
  OD 450 nm: 0.528 OD450
[12]
  OD 450 nm: 0.275 OD450
[13]
  OD 450 nm: 2.53 OD450
[14]
  OD 450 nm: 0.121 OD450
[15]
  fluorescence intensity (FACS): 454
[16]
  fluorescence intensity (FACS): 581
[17]
  fluorescence intensity (FACS): 267
[18]
  fluorescence intensity (FACS): 28.4
[19]
  fluorescence intensity (FACS): 519
[20]
  OD 450 nm: 0.272 OD450
[21]
  OD 450 nm: 1.74 OD450
[22]
  OD 450 nm: 0.116 OD450
[23]
  OD 450 nm: 2.27 OD450
[24]
  OD 450 nm: 2.57 OD450
[25]
  OD 450 nm: 2.55 OD450
